Positions count from the first letter of the chain named.
B1: 1IAR IA5A (protein, UniProt P05112 25-153, looked up, variant I5A)
Interleukin-4: HKCDATLQEIIKTLNSLTEQKTLCTELTVTDIFAASKNTTEKETFCRAATVLRQFYSHHEKDTRCLGATAQQFHRHKQLIRFLKRLDRNLWGLAGLNSCPVKEANQSTLENFLERLKTIMREKYSKCSS
B2: 1IAR WA91A (protein, UniProt P05112 25-153, looked up, variant W91A)
Interleukin-4: B1 Interleukin-4 with A5I, W91A
B3: 1IAR IA11A (protein, UniProt P05112 25-153, looked up, variant I11A)
Interleukin-4: B1 Interleukin-4 with A5I, I11A
B4: 1IAR FA82A (protein, UniProt P05112 25-153, looked up, variant F82A)
Interleukin-4: B1 Interleukin-4 with A5I, F82A
B5: 1JRH YI49A (protein, UniProt P15260 18-245, looked up, variant Y49A)
extracellular domain: EMGTADLGPSSVPTPTNVTIESYNMNPIVYWEYQIMPQVPVFTVEVKNAGVKNSEWIDACINISHHYCNISDHVGDPSNSLWVRVKARVGQKESAYAKSEEFAVCRDGKIGPPKLDIRKEEKQIMIDIFHPSVFVNGDEQEVDYDPETTCYIRVYNVYVRMNGSEIQYKILTQKEDDCDEIQCQLAIPVSSLNSQYCVSAEGVLHVWGVTTEKSKEVCITIFNSSIKG
modifications: extracellular domain
B6: 1JRH VI51A (protein, UniProt P15260 18-245, looked up, variant V51A)
extracellular domain: B5 extracellular domain with A49Y, V51A
modifications: extracellular domain
B7: 1JRH WI82A (protein, UniProt P15260 18-245, looked up, variant W82A)
extracellular domain: B5 extracellular domain with A49Y, W82A
modifications: extracellular domain
B8: 1EMV LA33A (protein, UniProt P13479 1-86, looked up, variant L33A)
Colicin-E9 immunity protein: MELKHSISDYTEAEFLQLVTTICNADTSSEEEAVKLVTHFEEMTEHPSGSDLIYYPKEGDDDSPSGIVNTVKQWRAANGKSGFKQG
B9: 1EMV VA34A (protein, UniProt P13479 1-86, looked up, variant V34A)
Colicin-E9 immunity protein: B8 Colicin-E9 immunity protein with A33L, V34A
B10: 1EMV VA68A (protein, UniProt P13479 1-86, looked up, variant V68A)
Colicin-E9 immunity protein: B8 Colicin-E9 immunity protein with A33L, V68A
B11: 1EMV YA54A (protein, UniProt P13479 1-86, looked up, variant Y54A)
Colicin-E9 immunity protein: B8 Colicin-E9 immunity protein with A33L, Y54A
B12: 1EMV IA53A (protein, UniProt P13479 1-86, looked up, variant I53A)
Colicin-E9 immunity protein: B8 Colicin-E9 immunity protein with A33L, I53A
B13: 1EMV YA55A (protein, UniProt P13479 1-86, looked up, variant Y55A)
Colicin-E9 immunity protein: B8 Colicin-E9 immunity protein with A33L, Y55A
B14: 1JRH GI50A (protein, UniProt P15260 18-245, looked up, variant G50A)
extracellular domain: B5 extracellular domain with A49Y, G50A
modifications: extracellular domain
B15: 1EMV GA49A (protein, UniProt P13479 1-86, looked up, variant G49A)
Colicin-E9 immunity protein: B8 Colicin-E9 immunity protein with A33L, G49A
B16: 1EMV PA56A (protein, UniProt P13479 1-86, looked up, variant P56A)
Colicin-E9 immunity protein: B8 Colicin-E9 immunity protein with A33L, P56A
B17: 1DAN VU198A (protein, UniProt P13726 33-251, looked up, variant V198A)
extracellular domain: SGTTNTVAAYNLTWKSTNFKTILEWEPKPVNQVYTVQISTKSGDWKSKCFYTTDTECDLTDEIVKDVKQTYLARVFSYPAGNVESTGSAGEPLYENSPEFTPYLETNLGQPTIQSFEQVGTKVNVTVEDERTLVRRNNTFLSLRDVFGKDLIYTLYYWKSSSSGKKTAKTNTNEFLIDVDKGENYCFSVQAVIPSRTANRKSTDSPVECMGQEKGEFRE
modifications: extracellular domain
B18: 1DAN VU207A (protein, UniProt P13726 33-251, looked up, variant V207A)
extracellular domain: B17 extracellular domain with A198V, V207A
modifications: extracellular domain
B19: 1DAN PU92A (protein, UniProt P13726 33-251, looked up, variant P92A)
extracellular domain: B17 extracellular domain with P92A, A198V
modifications: extracellular domain
B20: 1DAN GT43A (protein, UniProt P13726 33-251, looked up, variant G43A)
extracellular domain: B17 extracellular domain with G43A, A198V
modifications: extracellular domain
B21: 1DFJ WI257A (protein, UniProt P10775 1-456, looked up, variant W257A)
Ribonuclease inhibitor: MNLDIHCEQLSDARWTELLPLLQQYEVVRLDDCGLTEEHCKDIGSALRANPSLTELCLRTNELGDAGVHLVLQGLQSPTCKIQKLSLQNCSLTEAGCGVLPSTLRSLPTLRELHLSDNPLGDAGLRLLCEGLLDPQCHLEKLQLEYCRLTAASCEPLASVLRATRALKELTVSNNDIGEAGARVLGQGLADSACQLETLRLENCGLTPANCKDLCGIVASQASLRELDLGSNGLGDAGIAELCPGLLSPASRLKTLALWECDITASGCRDLCRVLQAKETLKELSLAGNKLGDEGARLLCESLLQPGCQLESLWVKSCSLTAACCQHVSLMLTQNKHLLELQLSSNKLGDSGIQELCQALSQPGTTLRVLCLGDCEVTNSGCSSLASLLLANRSLRELDLSNNCVGDPGVLQLLGSLEQPGCALEQLVLYDTYWTEEVEDRLQALEGSKPGLRVIS
B22: 1DFJ YI433A (protein, UniProt P10775 1-456, looked up, variant Y433A)
Ribonuclease inhibitor: B21 Ribonuclease inhibitor with A257W, Y433A
B23: 1DFJ YI430A (protein, UniProt P10775 1-456, looked up, variant Y430A)
Ribonuclease inhibitor: B21 Ribonuclease inhibitor with A257W, Y430A
B24: 1DFJ II455A (protein, UniProt P10775 1-456, looked up, variant I455A)
Ribonuclease inhibitor: B21 Ribonuclease inhibitor with A257W, I455A

tested on: PPIs of the SKEMPI data set (by PDBID); assay: SKEMPI experimental ΔΔG, single mutations to alanine; type: binding; details: class by ΔΔG threshold 4.184 kJ/mol; ref SKEMPI

| Molecule | sk_class (class of SKEMPI experimental ΔΔG) |
| --- | --- |
| B1 | Positive (positive (a hot residue) ΔΔG ≥ 4.184 kJ/mol) |
| B2 | Neutral (neutral (little effect) 4.184 kJ/mol < ΔΔG > −4.184 kJ/mol) |
| B3 | Neutral (neutral (little effect) 4.184 kJ/mol < ΔΔG > −4.184 kJ/mol) |
| B4 | Neutral (neutral (little effect) 4.184 kJ/mol < ΔΔG > −4.184 kJ/mol) |
| B5 | Positive (positive (a hot residue) ΔΔG ≥ 4.184 kJ/mol) |
| B6 | Positive (positive (a hot residue) ΔΔG ≥ 4.184 kJ/mol) |
| B7 | Positive (positive (a hot residue) ΔΔG ≥ 4.184 kJ/mol) |
| B8 | Positive (positive (a hot residue) ΔΔG ≥ 4.184 kJ/mol) |
| B9 | Positive (positive (a hot residue) ΔΔG ≥ 4.184 kJ/mol) |
| B10 | Positive (positive (a hot residue) ΔΔG ≥ 4.184 kJ/mol) |
| B11 | Positive (positive (a hot residue) ΔΔG ≥ 4.184 kJ/mol) |
| B12 | Neutral (neutral (little effect) 4.184 kJ/mol < ΔΔG > −4.184 kJ/mol) |
| B13 | Positive (positive (a hot residue) ΔΔG ≥ 4.184 kJ/mol) |

same assay, conditions: class of the SKEMPI experimental ΔΔG

| Molecule | sk_class |
| --- | --- |
| B14 | Positive (positive (a hot residue) ΔΔG ≥ 4.184 kJ/mol) |
| B15 | Positive (positive (a hot residue) ΔΔG ≥ 4.184 kJ/mol) |
| B16 | Positive (positive (a hot residue) ΔΔG ≥ 4.184 kJ/mol) |
| B17 | Neutral (neutral (little effect) 4.184 kJ/mol < ΔΔG > −4.184 kJ/mol) |
| B18 | Positive (positive (a hot residue) ΔΔG ≥ 4.184 kJ/mol) |
| B19 | Neutral (neutral (little effect) 4.184 kJ/mol < ΔΔG > −4.184 kJ/mol) |
| B20 | Neutral (neutral (little effect) 4.184 kJ/mol < ΔΔG > −4.184 kJ/mol) |
| B21 | Positive (positive (a hot residue) ΔΔG ≥ 4.184 kJ/mol) |
| B22 | Positive (positive (a hot residue) ΔΔG ≥ 4.184 kJ/mol) |
| B23 | Positive (positive (a hot residue) ΔΔG ≥ 4.184 kJ/mol) |
| B24 | Neutral (neutral (little effect) 4.184 kJ/mol < ΔΔG > −4.184 kJ/mol) |

tested on: PPIs of the SKEMPI data set (by PDBID); assay: not given; details: single mutation to alanine, sheet sortedByGroup, r_group FAMILYVW; ref SKEMPI; cited from earlier work

| Molecule | sk_ddG_kJ (SKEMPI experimental ΔΔG) |
| --- | --- |
| B17 | 0.46 kJ |
| B18 | 6.57 kJ |
| B21 | 5.56 kJ |
| B22 | 10.96 kJ |
| B23 | 24.89 kJ |
| B24 | 1.38 kJ |

same assay, conditions: single mutation to alanine; PPI given by PDBID; sheet sortedByGroup, r_group FAMILYVW; ref SKEMPI; cited from earlier work

| Molecule | sk_ddG_kJ (SKEMPI experimental ΔΔG) |
| --- | --- |
| B1 | 4.90 kJ |
| B2 | 3.05 kJ |
| B3 | 0.29 kJ |
| B4 | -0.38 kJ |
| B5 | 15.31 kJ |
| B6 | 6.19 kJ |
| B7 | 18.12 kJ |
| B8 | 14.31 kJ |
| B9 | 10.79 kJ |
| B10 | 7.78 kJ |
| B11 | 20.21 kJ |
| B12 | 3.56 kJ |
| B13 | 19.41 kJ |

same assay, conditions: single mutation to alanine; complex given by PDBID, mutation by mut_pdb; ref SKEMPI; cited from earlier work

| Molecule | sk_ddG_kJ (SKEMPI experimental ΔΔG) |
| --- | --- |
| B14 | 18.33 kJ |
| B15 | 6.23 kJ |
| B16 | 5.19 kJ |
| B19 | -0.79 kJ |
| B20 | 0.29 kJ |

Reference: article PMC6804253, “Predicting and Experimentally Validating Hot-Spot Residues at Protein–Protein Interfaces” (ACS Chemical Biology, 2019)
